The values below come from article PMC10206564.

This data set has as its target His954 (UniProt position 954, […]). Kind of data set: NMR. The settings on record: 30 mM NaCl plus 20 mM sodium phosphate, Folded post-fusion six-helix bundle (6HB) state, 0.15 mM protein, no lipid.

Usually pKa stands for the pH at which an ionisable group is half protonated. On to “Spike glycoprotein S2 HR1-HR2 fusion core ('Core') Q954H variant (Severe acute respiratory syndrome coronavirus 2 (SARS-CoV-2); Q954H)”, for which the pKa was found to be 6.40.
